From the supplement of paper PMC10567573

B1: LCOR (parent)
chain: YKVKERLGTLKNPPKKKMKLMSG

Variants of: B1
Assay: protein stability index of a GFP-peptide fusion (GPS, HEK-293T) (PSI 1-6); higher = more stable
Conditions: c terminus: native
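Note: lentivirally expressed fusions sorted by FACS into six bins by GFP to DsRed ratio, PSI derived from sequencing read proportions per bin multiplied by bin number.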

Point of comparison: YKVKERLGTLKNPPKKKLKLMSG [M18L], protein stability index 1.81. Against it:
- YKVKERLGTLSNPPKKKMKLMSG [K11S] — lower, 1.55
- YKVKERLGTLHNPPKKKMKLMSG [K11H] — lower, 1.79
- YKVKERLGTLGNPPKKKMKLMSG [K11G] — higher, 3.44
- YKVKERLGTLQNPPKKKMKLMSG [K11Q] — lower, 1.44
- YKVKERLGTLINPPKKKMKLMSG [K11I] — higher, 3.65
- YKVKERLGTLDNPPKKKMKLMSG [K11D] — lower, 1.76
- YKVKERLGTLMNPPKKKMKLMSG [K11M] — higher, 3.04
- YKVKERLGTLANPPKKKMKLMSG [K11A] — higher, 3.29
- YKVKERLGTLKNPPKKKDKLMSG [M18D] — higher, 3
- YKVKERLGTLKNPPKKKSKLMSG [M18S] — lower, 1.52
- YKVKERLGTLKNPPKKKEKLMSG [M18E] — higher, 2.24
- YKVKERLGTLKNPPKKKAKLMSG [M18A] — higher, 2.49
- YKVKERLGTLKNPPKKKVKLMSG [M18V] — higher, 2
- YKVKERLGTLKNPPKKKFKLMSG [M18F] — higher, 1.98
- YKVKERLGTLKNPPKKKCKLMSG [M18C] — higher, 1.82
- YKVKERLGTLKNPPKKYMKLMSG [K17Y] — higher, 2.25
- YKVKERLGTLKNPPKKPMKLMSG [K17P] — higher, 2.59
- YKVKERLGTLKNPPKKFMKLMSG [K17F] — higher, 2.02
- YKVKERLGTLKNPPKKDMKLMSG [K17D] — higher, 1.83
- YKVKERLGTLKNPPKKTMKLMSG [K17T] — lower, 1.76
- YKVKERLGTLKNPPKKGMKLMSG [K17G] — lower, 1.43
- YKVKERLGTLKNPPKKHMKLMSG [K17H] — higher, 2.02
- YKVKERLGTLKNPPKKLMKLMSG [K17L] — lower, 1.34
- YKVKERLGTLKNPPKKNMKLMSG [K17N] — higher, 1.83
- YKVKERLGTLKNPPKKEMKLMSG [K17E] — higher, 2.63
- YKVKERLKTLKNPPKKKMKLMSG [G8K] — lower, 1.47
- YKVKERLHTLKNPPKKKMKLMSG [G8H] — higher, 1.92
- YKVKERLLTLKNPPKKKMKLMSG [G8L] — higher, 2.22
- YKVKERLCTLKNPPKKKMKLMSG [G8C] — higher, 2.52
- YKVKERLYTLKNPPKKKMKLMSG [G8Y] — higher, 2.08
- YKVKERLQTLKNPPKKKMKLMSG [G8Q] — higher, 3.21
- YKVKERLSTLKNPPKKKMKLMSG [G8S] — lower, 1.76
- YKVKERLGTLKNPPKKKMALMSG [K19A] — higher, 3.4
- YKVKERLGTLKNPPKKKMPLMSG [K19P] — higher, 2.26
- YKVKERLGTLKNPPKKKMQLMSG [K19Q] — higher, 3.03
- YKVKERLGTLKNPPKRKMKLMSG [K16R] — higher, 2.55
- YKVKERLGTLKNPPKGKMKLMSG [K16G] — higher, 2.57
- YKVKERLGTLKNPPKIKMKLMSG [K16I] — lower, 1.39
- YKVKERLGTLKNPPKSKMKLMSG [K16S] — lower, 1.46
- YKVKERLGTLKNPPKNKMKLMSG [K16N] — lower, 1.76
- YKVKERLGTLKNPPKLKMKLMSG [K16L] — higher, 2.34
- YKVKERLGTLKNPPKCKMKLMSG [K16C] — lower, 1.15
- YKVKERLGTLKNPPKKKMKKMSG [L20K] — higher, 3.8
- YKVKERLGTLKNPPKKKMKNMSG [L20N] — higher, 2.43
- YKVKERLGTLKNPPKKKMKQMSG [L20Q] — higher, 3.83
- YKVKERLGTLKNPPKKKMKYMSG [L20Y] — higher, 2.18
- YKVKERLGTLKNPPKKKMKFMSG [L20F] — higher, 2.55
- YKVKERLGTLKNPPKKKMKMMSG [L20M] — lower, 1.55
- YKVKERLGTLKNPIKKKMKLMSG [P14I] — lower, 1.78
- YKVKERLGTLKNPGKKKMKLMSG [P14G] — higher, 3.94
- YKVKERLGTLKNPAKKKMKLMSG [P14A] — lower, 1.42
- YKVKERLGTLKNPYKKKMKLMSG [P14Y] — higher, 3.03
- YKVKERLGTYKNPPKKKMKLMSG [L10Y] — higher, 3.47
- YKVKERLGTMKNPPKKKMKLMSG [L10M] — higher, 2.8
- YKVKERLGTTKNPPKKKMKLMSG [L10T] — higher, 2.52
- YKVKERLGTFKNPPKKKMKLMSG [L10F] — higher, 2.46
- YKVKERLGTQKNPPKKKMKLMSG [L10Q] — lower, 1.52
- YKVKERLGTVKNPPKKKMKLMSG [L10V] — higher, 2
- YKVKERLGTDKNPPKKKMKLMSG [L10D] — higher, 1.86
- YKVKERLGTKKNPPKKKMKLMSG [L10K] — higher, 1.85
- YKVKERLGTSKNPPKKKMKLMSG [L10S] — higher, 1.85
- YKVKERLGTCKNPPKKKMKLMSG [L10C] — higher, 2.19
- YKVKERLGTLKNFPKKKMKLMSG [P13F] — higher, 2.63
- YKVKERLGTLKNSPKKKMKLMSG [P13S] — higher, 2.09
- YKVKERLGTLKNRPKKKMKLMSG [P13R] — higher, 2.2
- YKVKERLGTLKNHPKKKMKLMSG [P13H] — higher, 2.49
- YKVKERLGTLKNAPKKKMKLMSG [P13A] — higher, 2.68
- YKVKERLGTLKNIPKKKMKLMSG [P13I] — higher, 2.27
- YKVKERLGTLKYPPKKKMKLMSG [N12Y] — higher, 2.39
- YKVKERLGTLKHPPKKKMKLMSG [N12H] — higher, 2.7
- YKVKERLGTLKFPPKKKMKLMSG [N12F] — higher, 1.86
- YKVKERLGTLKKPPKKKMKLMSG [N12K] — higher, 2.25
- YKVKERLGTLKWPPKKKMKLMSG [N12W] — higher, 2.83
- YKVKERLGTLKVPPKKKMKLMSG [N12V] — higher, 1.86
- YKVKERLGTLKQPPKKKMKLMSG [N12Q] — higher, 2.6
- YKVKERLGTLKMPPKKKMKLMSG [N12M] — lower, 1.26
- YKVKERLGTLKNPPKKKMKLWSG [M21W] — higher, 2.82
- YKVKERLGTLKNPPKKKMKLLSG [M21L] — higher, 3.01
- YKVKERLGTLKNPPKKKMKLPSG [M21P] — higher, 2.56
- YKVKERLGTLKNPPKKKMKLGSG [M21G] — higher, 2.91
- YKVKERLGTLKNPPKKKMKLHSG [M21H] — higher, 3.33
- YKVKERLGTLKNPPKKKMKLNSG [M21N] — higher, 5.95
- YKVKERLGMLKNPPKKKMKLMSG [T9M] — higher, 2.39
- YKVKERLGNLKNPPKKKMKLMSG [T9N] — higher, 2.45
- YKVKERLGKLKNPPKKKMKLMSG [T9K] — higher, 2.06
- YKVKERLGELKNPPKKKMKLMSG [T9E] — lower, 1.53
- YKVKERLGLLKNPPKKKMKLMSG [T9L] — higher, 3.4
- YKVKERLGHLKNPPKKKMKLMSG [T9H] — higher, 2.33
- YKVKERLGILKNPPKKKMKLMSG [T9I] — lower, 1.5
- YKVVERLGTLKNPPKKKMKLMSG [K4V] — lower, 1.22
- YKVLERLGTLKNPPKKKMKLMSG [K4L] — higher, 2.23
- YKVQERLGTLKNPPKKKMKLMSG [K4Q] — higher, 1.88
- YKVDERLGTLKNPPKKKMKLMSG [K4D] — lower, 1.45
- YKVRERLGTLKNPPKKKMKLMSG [K4R] — higher, 3.6
- YKVHERLGTLKNPPKKKMKLMSG [K4H] — higher, 2.52
- YKVPERLGTLKNPPKKKMKLMSG [K4P] — lower, 1.35
